Substrate in this series: [O-][Cl+]O
Description: oxygen evolution in digitonin-permeabilised HeLa cells, optical oxygen meter, initial rates. The format is biochemical, Nitrospira defluvii. The settings on record: 20 mM HEPES pH 7.2, 125 mM KCl, 2 mM K2HPO4, 1 mM MgCl2, glutamate, malate, 0.01% digitonin, air-saturated, chlorite 10 μM to 1 mM.

This passage reports Km results from PMC9618058, “A genetically encoded system for oxygen generation in living cells” (Proceedings of the National Academy of Sciences of the …, 2022).

B1: FLAG-NdCld (Nitrospira defluvii) (protein)
chain: ADREKLLTESGVYGTFATFQMDHDWWDLPGESRVISVAEVKGLVEQWSGKILVESYLLRGLSDHADLMFRVHARTLSDTQQFLSAFMGTRLGRHLTSGGLLHGVSKKPTYVAGFPESMKTELQVNGESGSRPYAIVIPIKKDAEWWALDQEARTALMQEHTQAALPYLKTVKRKLYHSTGLDDVDFITYFETERLEDFHNLVRALQQVKEFRHNRRFGHPTLLGTMSPLDEILEKFAQ
notes: codon-optimised; N-terminal FLAG kept; expressed in HeLa cells; 29 kDa; runs at 248 kDa (dimer of pentamers)
Take B1: the Km worked out at 560 µM.

Broadly, the Km is the concentration of substrate that gives half-maximal velocity.
